Legend:
[1] = In vitro phosphatase assay: enzymatic activity of PAPP5 and its domain fragments on ρNPP; assay type: biochemical; details: in the presence of 100 μM arachidonic acid
Protocol: In order to examine whether the inventive PAPP5 protein has enzymatic activity, an enzymatic assay was performed using […] ρ-nitrophenyl phosphate (ρNPP) as a substrate. First, the GST-PAPP5 fusion protein purified in Example <4-1> was prewarmed at 30° C. for 1 minute. The prewarmed enzyme solution was added to 100 μl of kinase/phosphatase (KP) buffer (20 mM Tris-HCl pH 7.5, 30 mM MgCl2, 1 mM EDTA, 1 mM EGTA, 0.1% β-mercaptoethanol, 0.1% ethanol) containing O-400 mM ρNPP to initiate a reaction. To examine the autohydrolysis of ρNPP at each substrate concentration, the GST-PAPP5 enzyme solution was not added to a control group. After reaction at 30° C. for 15 minutes, 900 μl of 0.25N NaOH was added to terminate the reaction. The absorbance at 410 nm was measured. After subtracting the absorbance value of the control reaction solution containing all the components except for the enzyme from that of the reaction solution containing the enzyme, the rate was calculated using a millimolar extinction coefficient (17.8) of ρ-nitrophenolate ions.
Thus, in order to confirm if PAPP5 also have this property, the present inventors examined the phosphatase activities of GST-PAPP5, GST-TPR and GST-PP2Ac in the same manner as in Example <6-1>. At this time, the concentration of ρNPP was 100 mM.

[2] = target: T1, Arabidopsis thaliana phytochrome A (Arabidopsis thaliana, UniProt P14712); assay: Yeast two-hybrid analysis of specificity of interaction; assay type: cell-based; details: EGY48 yeast, Leu-drop out and X-gal media
T1 construct: expressed in transfected cells; host or cells: EGY48 yeast strain with pSH18-34 reporter
T1 sequence (P14712 1-1122): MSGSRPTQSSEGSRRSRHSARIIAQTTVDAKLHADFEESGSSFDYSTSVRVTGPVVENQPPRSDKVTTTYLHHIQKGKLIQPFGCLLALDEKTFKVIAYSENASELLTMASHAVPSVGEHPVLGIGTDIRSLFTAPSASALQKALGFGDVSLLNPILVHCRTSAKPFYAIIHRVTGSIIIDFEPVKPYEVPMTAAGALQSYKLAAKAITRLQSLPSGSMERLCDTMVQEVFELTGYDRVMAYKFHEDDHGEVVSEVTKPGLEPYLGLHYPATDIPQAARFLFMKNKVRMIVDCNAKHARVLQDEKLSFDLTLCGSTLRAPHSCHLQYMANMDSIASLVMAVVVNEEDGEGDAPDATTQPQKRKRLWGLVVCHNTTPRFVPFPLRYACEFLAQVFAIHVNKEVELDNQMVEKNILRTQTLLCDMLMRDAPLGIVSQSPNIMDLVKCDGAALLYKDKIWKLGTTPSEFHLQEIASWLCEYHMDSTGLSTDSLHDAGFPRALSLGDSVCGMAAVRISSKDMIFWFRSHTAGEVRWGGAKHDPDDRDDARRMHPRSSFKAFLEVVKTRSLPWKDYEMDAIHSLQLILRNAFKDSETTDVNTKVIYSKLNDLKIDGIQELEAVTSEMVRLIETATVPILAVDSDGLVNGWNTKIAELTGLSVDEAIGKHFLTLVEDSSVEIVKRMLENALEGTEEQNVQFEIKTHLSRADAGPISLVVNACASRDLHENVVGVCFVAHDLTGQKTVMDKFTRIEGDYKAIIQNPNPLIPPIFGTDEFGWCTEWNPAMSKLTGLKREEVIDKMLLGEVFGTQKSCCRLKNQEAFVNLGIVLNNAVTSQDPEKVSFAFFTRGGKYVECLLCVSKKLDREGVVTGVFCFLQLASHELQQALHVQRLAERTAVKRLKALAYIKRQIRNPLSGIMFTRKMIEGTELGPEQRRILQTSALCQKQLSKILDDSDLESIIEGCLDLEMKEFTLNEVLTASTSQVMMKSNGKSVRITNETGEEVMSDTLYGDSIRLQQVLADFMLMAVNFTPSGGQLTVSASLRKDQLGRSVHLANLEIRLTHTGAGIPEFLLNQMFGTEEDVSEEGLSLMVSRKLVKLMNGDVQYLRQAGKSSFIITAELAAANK
From the text: A pGilda vector and a pJG4-5 vector (OriGene Technologies) were used to prepare a prey and a bait, […] (see FIG. 4). In this case, as control groups to examine specific binding, hepatitis C virus (HCV) protein NS5A(N) (distributed from professor S K Jang, Department of Life Science, Pohang University of Science and Technology, Korea) and another plant protein SPINDLY(SPY) having the TPR domain (Jacobsen, S. E., et al., Proc. Natl. Acad. Sci. U.S.A. 93:9292-9296, 1996) were used. Furthermore, the prey and the bait were interchanged to observe protein-protein binding by a reciprocal method. The prepared prey and bait together with a pSH18-34 reporter plasmid (OriGene Technologies) were co-introduced into an EGY48 yeast strain (OriGene Technologies). Next, the transformants were selected on a media containing X-gal (5-bromo-4-chloro-3-indolyl-β-D-galactopyranoside; Rose Scientific Ltd.). Plate-growth assays were performed on Leu-drop out media and X-gal media.

[3] = test system: autophosphorylated oat phytochrome A; assay: Dephosphorylation of autophosphorylated phytochrome by PAPP5 in vitro; assay type: biochemical; details: Rc 664 nm or FRc 748 nm irradiation for 5 minutes
Protocol: First, KP buffer (20 mM Tris-HCl pH7.5, 30 mM MgCl2, 1 mM EDTA, 1 mM EGTA, 0.1% β-mercaptoethanol, 0.1% ethanol) containing 1 μg of purified oat phytochrome A (provided from Kumho Life and Environmental Science Laboratory, Korea) was set on ice and irradiated with Rc light output of 50 μmolS^−1m^−2 at 664 nm for 5 minutes. Then, the reaction solution was allowed to react with [γ-^32P]ATP in dark conditions for 30 minutes (autophosphorylation of phytochrome A). Following addition of 1 μg of each of the fusion proteins GST-PAPP5, GST-TPR and GST-PP2Ac prepared in Examples <4-1> and <5-1>, the reaction continued for more 30 minutes, and then stopped by adding 12 μl of 5× Tris-glycine SDS sample buffer under dim green safe light.
Next, the present inventors investigated whether the phosphatase activity of PAPP5 depends on a change in the spectroscopic structure (photoconversion) of phytochrome molecules (Pr⇄Pfr). KP buffer solution containing phytochrome was set on ice and irradiated with a Rc light output of 50 μmolS^−1m^−2 at 664 nm (conversion of phytochrome into Pfr form) or a FRc light output of 50 μmolS^−1m^−2 at 748 nm (conversion of phytochrome into […]) for 5 minutes. Then, the autophosphylation/dephosphorylation test of phytochrome was performed in the same manner as described above.

With “PAPP5: type 5 serine/threonine protein phosphatase of Arabidopsis thaliana interacting with phytochromes, SEQ ID NO: 4” the “Km (Michaelis-Menten)” value [1] was 160 mM ρNPP, the “Vmax (Michaelis-Menten)” value [1] was 22 μmmol Pi released/min/mg and the “interaction with phytochrome A in yeast two-hybrid” value [2] was “interacted specifically”. The “dephosphorylation by PAPP5 according to the form of phytochrome (Pfr vs Pr)” value [3] was “higher in Pfr phytochrome”.

Source: US7728193B2, “Phytochrome-interacting protein and a use thereof” (Genomine Inc., priority 2004, dated 2010)
